Measurements from paper PMC7315737, “The putative Escherichia coli dehydrogenase YjhC metabolises two dehydrated forms of N-acetylneuraminate produced by some sialidases” (Bioscience Reports, 2020).

What was measured:
Type in all cases: biochemical, Escherichia coli
[1] = substrate: NC(=O)c1ccc[n+]([C@@H]2O[C@H](COP(=O)(O)OP(=O)(O)OC[C@H]3O[C@@H](n4cnc5c(N)ncnc54)[C@H](O)[C@@H]3O)[C@@H](O)[C@H]2O)c1; assay: Neu5Ac formation versus NAD+ concentration, endpoint assay; conditions: 1 mM 2,7-AN, 0.45 µM YjhC, 30 mM HEPES pH 7.5, 10 mM KCl, 1 mM MgCl2, 37°C, Ka is a half-activation constant, not an association constant, varied: cofactor
[2] = substrate: [H][C@@]1([C@H](O)[C@H](O)CO)OC(C(=O)O)=C[C@H](O)[C@H]1NC(C)=O; assay: purified protein; conditions: 50 µM NAD+, 30 mM HEPES pH 7.5, 10 mM KCl, 1 mM MgCl2, 37°C, sigmoidal, Hill coefficient 2.59
[3] = substrate: CC(=O)N[C@H]1[C@H]2O[C@@](C(=O)O)(C[C@@H]1O)O[C@@H]2[C@H](O)CO; assay: purified protein; conditions: 50 µM NAD+, 30 mM HEPES pH 7.5, 10 mM KCl, 1 mM MgCl2, 37°C, sigmoidal, Hill coefficient 2.20

B1: YjhC (Escherichia coli K-12) (protein)
chain: MINYGVVGVGYFGAELARFMNMHDNAKITCVYDPENGENIARELQCINMSSLDALVSSKLVDCVIVATPNYLHKEPVIKAAKNKKHVFCEKPIALSYEDCVDMVKACKEAGVTFMAGHIMNFFNGVQYARKLIKEGVIGEILSCHTKRNGWENKQERLSWKKMKEQSGGHLYHHIHELDCVQHLLGEIPETVTMIGGNLAHSGPGFGNEDDMLFMTLEFPSGKLATLEWGSAFNWPEHYVIINGTKGSIKIDMQETAGSLRIGGQTKHFLVHETQEEDDDRRKGNMTSEMDGAIAYGHPGKKTPLWLASLIRKETLFLHNILCGAKPEEDYIDLLNGEAAMSAIATADAATLSRSQDRKVKISEIIKHTSVM
notes: full-length ORF from ASKA library in pCA24N, N-terminal His6-tag kept, expressed in E. coli BL21
B1 was tested, and the K0.5 [1] was 0.84 µM, the K0.5 [2] was 0.30 mM and the K0.5 [3] was 0.45 mM.
